Target: T1, Cbf5 (Pyrococcus furiosus, UniProt Q7LWY0 1-340)
T1 sequence (looked up): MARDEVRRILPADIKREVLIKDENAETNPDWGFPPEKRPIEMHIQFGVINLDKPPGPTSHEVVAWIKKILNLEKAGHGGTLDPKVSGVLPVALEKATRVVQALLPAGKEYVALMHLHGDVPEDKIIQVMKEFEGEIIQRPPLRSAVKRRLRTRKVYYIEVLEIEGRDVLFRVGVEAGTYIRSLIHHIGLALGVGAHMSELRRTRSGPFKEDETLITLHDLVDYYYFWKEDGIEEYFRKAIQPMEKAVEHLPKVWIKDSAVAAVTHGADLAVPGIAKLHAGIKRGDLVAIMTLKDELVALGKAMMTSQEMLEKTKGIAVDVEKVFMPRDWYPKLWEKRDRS
Test: crystal structure

B1: Nop10 (natural protein, Pyrococcus furiosus)
chain: MRFRIRKCPKCGRYTLKEVCPVCGEKTKVAHPPRFSPEDPYGEYRRRWKREVLGIGRKEK
- binding result: binds

Reference: publication PMC2928259 (Biochemistry, 2010)
